Measurements taken from publication PMC4260089 (The Plant Journal, 2014).

T1: SERK3^250–615 (entire cytoplasmic portion, JM–KD–CT) (Arabidopsis thaliana), Q94F62
T1 chain: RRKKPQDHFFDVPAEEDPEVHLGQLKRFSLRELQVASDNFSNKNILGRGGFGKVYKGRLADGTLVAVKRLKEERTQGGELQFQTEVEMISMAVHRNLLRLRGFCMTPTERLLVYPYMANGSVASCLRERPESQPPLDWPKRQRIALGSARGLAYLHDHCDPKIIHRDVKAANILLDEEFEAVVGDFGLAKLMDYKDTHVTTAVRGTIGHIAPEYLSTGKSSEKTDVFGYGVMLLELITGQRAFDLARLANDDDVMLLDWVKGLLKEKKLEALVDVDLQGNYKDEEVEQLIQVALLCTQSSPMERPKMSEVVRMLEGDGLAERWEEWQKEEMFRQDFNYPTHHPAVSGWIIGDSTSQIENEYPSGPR


Tests used:
[1] = target: the molecule itself; assay: SEC
[2] = target: T1, SERK3^250–615 (entire cytoplasmic …); assay: SEC; conditions: remark: other sources report otherwise

stoichiometry N [2] | Binder | stoichiometry N [1]
 | SERK2^281–628 (cytoplasmic portion, JM–KD–CT) (domain or fragment, Arabidopsis thaliana, UniProt Q9XIC7 281-628, looked up) EDPEVHLGQLKRFSLRELQVATDSFSNKNILGRGGFGKVYKGRLADGTLVAVKRLKEERTPGGELQFQTEVEMISMAVHRNLLRLRGFCMTPTERLLVYPYMANGSVASCLRERPPSQLPLAWSIRQQIALGSARGLSYLHDHCDPKIIHRDVKAANILLDEEFEAVVGDFGLARLMDYKDTHVTTAVRGTIGHIAPEYLSTGKSSEKTDVFGYGIMLLELITGQRAFDLARLANDDDVMLLDWVKGLLKEKKLEMLVDPDLQSNYTEAEVEQLIQVALLCTQSSPMERPKMSEVVRMLEGDGLAEKWDEWQKVEVLRQEVELSSHPTSDWILDSTDNLHAMELSGPR | 2
2 | SERK3^250–615 (entire cytoplasmic portion, JM–KD–CT), Q94F62 250-615 (domain or fragment) RRKKPQDHFFDVPAEEDPEVHLGQLKRFSLRELQVASDNFSNKNILGRGGFGKVYKGRLADGTLVAVKRLKEERTQGGELQFQTEVEMISMAVHRNLLRLRGFCMTPTERLLVYPYMANGSVASCLRERPESQPPLDWPKRQRIALGSARGLAYLHDHCDPKIIHRDVKAANILLDEEFEAVVGDFGLAKLMDYKDTHVTTAVRGTIGHIAPEYLSTGKSSEKTDVFGYGVMLLELITGQRAFDLARLANDDDVMLLDWVKGLLKEKKLEALVDVDLQGNYKDEEVEQLIQVALLCTQSSPMERPKMSEVVRMLEGDGLAERWEEWQKEEMFRQDFNYPTHHPAVSGWIIGDSTSQIENEYPSGPR | 
